# Assay results: US12077763B2, “RNA-based control of powdery mildew” (Greenlight Biosciences, Inc., priority 2021, dated 2024)
# Tested on: E. necator
# Experiment: Leaf disc assay, dry inoculum (settling tower), decrease in disease severity / hyphal growth (Example 2)
# Details: decrease in disease severity (hyphal growth) relative to untreated control, value ± SE; for % decrease =/− SE TP1: time point 1 (untreated control hyphal growth ≥50%); for % decrease =/− SE TP2: time point 2
molecule,measurement,value
GS1824: dsRNA trigger SEQ ID NO 200; gene target WD repeat domain-containing protein 83 (nucleic acid) DNA: CTTGCCATCTCTTCCAACCTTTCTCTTACCATCAAACTTTGTTCCTTTTACTGTGATCCTCTCGACAAGTTTTCCGCTCAATGTATCCCAGACAACCACTTCACCATCTTGTCCTTCAATATTCTCGTTTCCAGAAAGTATCCATCTCTCTCTTCCACCAAAACAGTTCCATATTCGAAATTCTTTGTTTTCCCAGCAATCTGCACGATAACTCCTTAGTAATTTACCATTCTCGGTATCCATTAGTCTAAGCTGACTATCCAGTCCACCTACAAGTAGACCTTTTTTATCTATTGTCTTCCTTAGACATGTCACAGGAGCACCAATAACATCGACAACAATTTGTCCCATTCTAATGTCGTATTTCCTAACTTTTCCATCGACACTACTGGTCCATATCTCGCTATCACTCGCTAATACGCAGCTCACACTATCACCAGCCTCTGTTAGAACCATAACTGGCTTAGCACTCGAGCTCTTCACATCCCAGATACGAGCACTGGCATCAAAACCTCCACTAATAAGAAGACTGGCTCCATCCCCAGCAAAAGTAACGGTATTGATGCGTGCCGAATGACCATTGTTGCCACTAAAT,% decrease =/− SE TP1,26 ± 7%
same,% decrease =/− SE TP2,19.5 ± 8%
GS1823: dsRNA trigger SEQ ID NO 158; gene target Guanine nucleotide-binding protein subunit beta-like protein (nucleic acid) DNA: TAGCCAGTATCTGTTAGGCGAAAAAACAAGCGCATGGATCAAATCACCAGCATTGAGAGAATATAAATGCTTAGACTCATTTAGATCCCACAACATAGTAGTCCCATCTTTCCCACCTGATGCGCAGAGAGAACCGTCCGGCGAGATGGTGACAGTATTTATGTAACCATTGTGGCCAATATGGTCAGTCTGTAGTTTACAAGAGGATAATTCCCAGACCTTCACAAGTTTGTCCCAGCTACTGCTGACAATGACTGGATTTTGTGGATTTGGGCTGAATCGTACACAAGATACCCAATCATTATGACCTTTTTCAGTAATGGTGAACTTGCAATCACCTAGAGTATTCCAGAGCTTAATTGTTCGATCACGAGAGCCCGAGACAATTTGCCTGTTGTCAGCGGAAAAAGAAACAGAAAGAACATCATTTGTGTGGCCGACAAATCTCCTTGTTGTGGTTCCTGTTGCAAGCTCCCAGAGTCGGAGAGTTTTATCCCAAGAAGCAGATAGAGCATAAGCACCATCAGAAGAAATTACACAGTCGGAAACTATATGAGAGTGGCCATGAAGTGATCGCTTTGGGTAACCGTAGGAA,% decrease =/− SE TP1,31 ± 8%
same,% decrease =/− SE TP2,26 ± 8%
GS1820: dsRNA trigger SEQ ID NO 164; gene target Mitochondrial carrier protein LEU5 (nucleic acid) DNA: TTTTTTACAGCCTCTTTGGGAAATCTTATGGATTGAGGCGAAGGCGGAACTTCATTATATATGATTTTGCAAATGTGTGAAAAGCTTGAGCTCGCACCTTTCTTTGTTTCAAAAGCTAGCCGAACCCTTATGACTTCTAAGGGATATGTGAAGAAAACACTAGCGACGCCTGCTAAACTGCCACTTAACAATCTTCGTAATGATGTTTCTTGCGTAGGTGATGATATAAGAAATGATCGTATTTGCTCGTAGGTTAAAAACTTGATCGCAGCATAAGGAAATATCCGAATTATAGTGGCAGAATGGCCACGAAATAGACCACTAATTCCATCAGTAGCTTTGATTTGCCGTATAGCAGTCACAACGCCGAGCCAGCTCCCAGCGTATCTGGAAAATTGTGGATTAGAAGATTGGAATAATATCTTCACACGATCTAAAGGTGCCACTATAGTTTTTGCCGCACTCCCTGCTAGTCCTCCAGCTAATCCTGACCGCCATATGAATCCCAAAGATTGCTTTTCATGAGTTTGGGATTTTGATGAATCTTTTTTATTTTTCGTAGAAGGGTATACTGCAATATTACTTTCATATAAAT,% decrease =/− SE TP1,23 ± 4%
same,% decrease =/− SE TP2,10 ± 6%
GS1822: dsRNA trigger SEQ ID NO 206; gene target Putative phospholipid-transporting ATPase C6C3.06c (nucleic acid) DNA: TCTCTTCGCGACCGATATCCATTTCCTGAGGGTAACAGAGAATGATCTTCAGCACTGTCTGGGTTGTATCTGCCAGTTCCCTCAACATCTGGGTCGTCCCTCAATAAGCTATGTAAGTCCTCTTCAGCGTAGTCTAAATTCCTTGGGGCCCCATTTCTTCTTCCTAACCCTCTGAATCCGCTCATGCGTAGATTTCTCAACGGAATATTGCTTTCAGTTCTCCAGTCATGCGCTTTCGGTTTGATCCCTTGTTCAAGCTCCTGGATATCTAAATCCAGATCGGAGTCCGAATCAGCTTGAGGTGGAATTTGATCGCCCTGATGATAATATGAGCCCGAAGACATGCCTCATTGTATTTTATCGTTTGATCTCTATAATCTCCTAGGTGATGTTATAAAGCTTGACCGCATAAAATCGGTTAATCATTTAAGCAAATGCAGTTGCGGTGTGTCATATCTTTCACGGCAGCATCTAGTATGTCTAGTATGGCTGCTACTGTATTTTAAATAAACCAAAACATGTTCAACACATTTCATAAGGTATAAGAAGGATTGTGAATATAATTTACTGGTAAATTTTAAATCATAGTTGAAAA,% decrease =/− SE TP1,23 ± 5%
same,% decrease =/− SE TP2,16 ± 4%
GS1821: dsRNA trigger SEQ ID NO 131; gene target ABC transporter ATP-binding protein ARB1 (nucleic acid) DNA: AACACCATTAGGCCCTACCAAAGCTGTTCGAGAGTCCATATCAACACCTAGATCCAAATGTCTGTATAAATCATCTTTAGGATCACCAGAGTATGAAAAAGTAACATCGTCAAATGATAACACTGGTGGAGGAAGTTTTTCCACGTCTGCAAATCTGAAAGTAAAGATACGGTCAGGCTCAACTTTTTGAATGAAGCCATCTGCTTCCATCTTGTCTAGTATTTTTTGTCGTGATTTAGCCTGTCTGACTAAGTTGGCATAAGTACCAGCAGATGCAATAAATTTTTTGATATGAGCGATTTCGTCTTGTTGCTTGTGATAAGCTTTCATTTGGTTGACTTCTAACTCAGAGCGGGTCTTTTGGTATGTATCATAATTTCCACCATAATATGTAAGTTGTTTTTGCCGCATATCAATCATATTGGTGCAGACTCCATTTAGAAAGTCCATTGAATGAGACACTAATACAAGACTTCGATCCCACTTCTTAAGATATTCTTCAAGCCACACACAAGCTTCCAAGTCTAAGTGCGCAGTCGGATCATCAAGTAGAAGTAAAGATGGCTTAACAAAAAGGGCTTTTGCTAAAGCTACA,% decrease =/− SE TP1,29 ± 5%
same,% decrease =/− SE TP2,19 ± 6%
GS1819: dsRNA trigger SEQ ID NO 209; gene target Putative ATP-dependent RNA helicase PB1A10.06c (nucleic acid) DNA: CTGGTGCCCTTAACTTGATGGTAAGATTATTCGGCAGAGTTTTTACCATTTGAATATTTGGTATTGATTTATATCCTTGAGCCTCATTTATTTGCTGGATAGCCCAAGCCTTAAACGCAGATCTTTCTTTTCTAGGCGTATTCTCAATTTCATCGCAATCATCAGAACTTTCATTCTCATCACGGCTACTTTCTTTACTGCTATCTGACTCGTAATCAGATAAATTTGGTCCAATTTTATCTCCAACGTCTTCTGAGGAATTTGTCATGTTTCCTATGGTATCACGCTGGATTGACATACTTGAATCTGAGTTTATACCTTCCCATTCTGATTCATCATCGGTGACAGGCTTGCGAATATCAAGAGAAAATTTAGATACAATGCCGCCTCGTCGTTTTCTTTTCCCCAGAATAGGAATTCCCTCCTTACTTATTTCGAGTGGCTTTTTTTAATCCAGCTCCCACAGTTATATCTGTTTGCTTCTGAGTAGTAAGTACTGAAGCTTTAGAGGTCTCATCGATATTATCGTCACATGGAGATATTCTCAGATCATCATTGGTTACAGTACTCTCATCGGAATTGAATTGATTTTCGTT,% decrease =/− SE TP1,12 ± 6%
same,% decrease =/− SE TP2,8 ± 9%
